Assay results taken from the supplement of paper PMC7125110.
± gives the standard error. For some assays here: Fewer inactive variants are shown than the library holds.

B1: glmS ribozyme (parent)
chain: AUAAAAGCGCCAGAACUACAGAAAUGUAGUUGACGAGGAGGAGGUUUAUCGAAUUUUCGGCGGAUGCCUCCAAA

Tests used:
Conditions in all cases: with glucosamine-6-phosphate
glucosamine-6-phosphate [1] = variants of: B1; experiment: kcat; higher = faster cleavage; RNA array
Procedure, shortened: (§1)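 On sequenced MiSeq chips, barcoded ribozyme variants were made in situ by E. coli RNA polymerase and followed at 37 °C through a hybridised Cy3 probe. Glucosamine-6-phosphate was flowed in at 40 μM to 10 mM in HEPES/KCl/Mg(OAc)2 buffer. Exponential fits to normalised per-tile medians gave kobs, and weighted Michaelis–Menten fits gave kcat and KM.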

glucosamine-6-phosphate [2] = variants of: B1; experiment: KM; higher = weaker cofactor use; RNA array
Procedure, shortened: as §1

glucosamine-6-phosphate [3] = variants of: B1; experiment: self-cleavage kobs at 640 uM GlcN6P; higher = faster cleavage; RNA array
Procedure, shortened: as §1

glucosamine-6-phosphate [4] = variants of: B1; experiment: self-cleavage kobs at 2500 uM GlcN6P; higher = faster cleavage; RNA array
Procedure, shortened: as §1

glucosamine-6-phosphate [5] = variants of: B1; experiment: self-cleavage kobs at 10000 uM GlcN6P; higher = faster cleavage; RNA array
Procedure, shortened: as §1

glucosamine-6-phosphate [6] = variants of: B1; experiment: self-cleavage kobs at 40 uM GlcN6P; higher = faster cleavage; RNA array
Procedure, shortened: as §1

glucosamine-6-phosphate [7] = variants of: B1; experiment: self-cleavage kobs at 160 uM GlcN6P; higher = faster cleavage; RNA array
Procedure, shortened: as §1

Variant | kcat (glucosamine-6-phosphate [1]) | KM (glucosamine-6-phosphate [2]) | self-cleavage kobs at 640 uM GlcN6P (glucosamine-6-phosphate [3]) | self-cleavage kobs at 2500 uM GlcN6P (glucosamine-6-phosphate [4]) | self-cleavage kobs at 10000 uM GlcN6P (glucosamine-6-phosphate [5]) | self-cleavage kobs at 40 uM GlcN6P (glucosamine-6-phosphate [6]) | self-cleavage kobs at 160 uM GlcN6P (glucosamine-6-phosphate [7])
U49G U69C | 0.000152 ± 6.9e-06 s⁻¹ | 466 ± 86 µM | 8.8e-05 ± 2.4e-05 s⁻¹ | 0.000131 ± 2.7e-05 s⁻¹ | 0.00014 ± 3.8e-05 s⁻¹ |  | 
A42U U69C C71U | 0.00168 ± 0.0003 s⁻¹ | 700 ± 210 µM | 0.000956 ± 0.00016 s⁻¹ | 0.00156 ± 0.00038 s⁻¹ | 0.00136 ± 0.00028 s⁻¹ | 8.14e-05 ± 1.7e-05 s⁻¹ | 
A53U U69A | 0.000102 ± 1.2e-05 s⁻¹ |  | 0.000146 ± 3.1e-05 s⁻¹ | 0.000103 ± 1.7e-05 s⁻¹ | 9.48e-05 ± 1.3e-05 s⁻¹ | 4.28e-05 ± 1.3e-05 s⁻¹ | 5.84e-05 ± 1.7e-05 s⁻¹
G29A A64G | 0.0066 ± 0.0018 s⁻¹ | 3900 ± 1500 µM | 0.000967 ± 0.00022 s⁻¹ | 0.00217 ± 0.00041 s⁻¹ | 0.00532 ± 0.00092 s⁻¹ | 0.000101 ± 2.6e-05 s⁻¹ | 0.000242 ± 6.6e-05 s⁻¹
G60A C67G | 1.56e-05 ± 2e-06 s⁻¹ |  |  |  |  |  | 
A14C U69C | 0.00147 ± 0.00041 s⁻¹ | 2100 ± 820 µM | 0.000344 ± 6.1e-05 s⁻¹ | 0.000686 ± 0.00015 s⁻¹ | 0.00131 ± 0.0002 s⁻¹ | 5.59e-05 ± 1.2e-05 s⁻¹ | 9.64e-05 ± 1.4e-05 s⁻¹
G40A A53C | 0.00179 ± 0.0007 s⁻¹ |  | 0.000386 ± 0.00011 s⁻¹ | 0.000919 ± 0.0002 s⁻¹ | 0.00217 ± 0.0008 s⁻¹ |  | 0.000183 ± 5.8e-05 s⁻¹
U31A U54G | 0.0208 ± 0.0046 s⁻¹ | 3520 ± 990 µM | 0.00291 ± 0.00094 s⁻¹ | 0.016 ± 0.0066 s⁻¹ | 0.0152 ± 0.0024 s⁻¹ | 0.00027 ± 3.9e-05 s⁻¹ | 0.00075 ± 0.00015 s⁻¹
U45C U56A | 0.000778 ± 0.00024 s⁻¹ |  | 0.000288 ± 3.9e-05 s⁻¹ | 0.000377 ± 6.1e-05 s⁻¹ | 0.000928 ± 0.00015 s⁻¹ |  | 7.1e-05 ± 1.5e-05 s⁻¹
G43A U45G | 0.0116 ± 0.0056 s⁻¹ |  | 0.00306 ± 0.00054 s⁻¹ | 0.00969 ± 0.0023 s⁻¹ | 0.00965 ± 0.0026 s⁻¹ | 0.000563 ± 0.0001 s⁻¹ | 0.000816 ± 0.00022 s⁻¹
A53U U55A | 0.026 ± 0.012 s⁻¹ |  | 0.00403 ± 0.00095 s⁻¹ | 0.00891 ± 0.0017 s⁻¹ | 0.0215 ± 0.0042 s⁻¹ | 0.000486 ± 8.9e-05 s⁻¹ | 0.000887 ± 0.00017 s⁻¹
A33U A39U | 5.86e-05 ± 3e-06 s⁻¹ | 4820 ± 620 µM |  | 2.03e-05 ± 6.2e-06 s⁻¹ | 3.95e-05 ± 5.5e-06 s⁻¹ |  | < 1e-05 s⁻¹
C50U G66A | 0.000123 ± 5.1e-05 s⁻¹ |  |  |  | 4.11e-05 ± 9.9e-06 s⁻¹ |  | 
C34A A36U | < 1e-05 s⁻¹ |  | < 1e-05 s⁻¹ | < 1e-05 s⁻¹ | < 1e-05 s⁻¹ | < 1e-05 s⁻¹ | 
U54C C68G | 8.49e-05 ± 1.1e-05 s⁻¹ |  | 4.44e-05 ± 1e-05 s⁻¹ | 9.2e-05 ± 1.4e-05 s⁻¹ | 7.49e-05 ± 1e-05 s⁻¹ |  | 
C58A C71G | 3.85e-05 ± 8.3e-06 s⁻¹ |  | 3.58e-05 ± 1.5e-05 s⁻¹ | 4.63e-05 ± 1.1e-05 s⁻¹ | 2.57e-05 ± 1.2e-05 s⁻¹ | < 1e-05 s⁻¹ | 

Variant | kcat (glucosamine-6-phosphate [1]) | KM (glucosamine-6-phosphate [2]) | self-cleavage kobs at 640 uM GlcN6P (glucosamine-6-phosphate [3]) | self-cleavage kobs at 2500 uM GlcN6P (glucosamine-6-phosphate [4]) | self-cleavage kobs at 10000 uM GlcN6P (glucosamine-6-phosphate [5]) | self-cleavage kobs at 40 uM GlcN6P (glucosamine-6-phosphate [6]) | self-cleavage kobs at 160 uM GlcN6P (glucosamine-6-phosphate [7])
G44U C67G | 0.0189 ± 0.0043 s⁻¹ | 1120 ± 340 µM | 0.00865 ± 0.0011 s⁻¹ | 0.023 ± 0.0048 s⁻¹ | 0.0148 ± 0.0022 s⁻¹ | 0.00061 ± 6.9e-05 s⁻¹ | 0.00226 ± 0.0003 s⁻¹
A42U U54G | 0.000246 ± 1e-05 s⁻¹ | 736 ± 110 µM | 0.000117 ± 2e-05 s⁻¹ | 0.000201 ± 3.1e-05 s⁻¹ | 0.000226 ± 2.1e-05 s⁻¹ |  | 
C8A G35U | < 1e-05 s⁻¹ |  |  | < 1e-05 s⁻¹ | < 1e-05 s⁻¹ |  | 
U47G | 0.0175 ± 0.00086 s⁻¹ | 2130 ± 130 µM | 0.00389 ± 0.00017 s⁻¹ | 0.00997 ± 0.00041 s⁻¹ | 0.0142 ± 0.00058 s⁻¹ | 0.000326 ± 7.1e-06 s⁻¹ | 0.00112 ± 9.8e-05 s⁻¹
C16G U57G | 2.25e-05 ± 2.8e-06 s⁻¹ |  |  |  |  | < 1e-05 s⁻¹ | 
A15C G32A | 0.00227 ± 0.0006 s⁻¹ | 3610 ± 1400 µM | 0.000293 ± 6.8e-05 s⁻¹ | 0.0012 ± 0.00025 s⁻¹ | 0.00157 ± 0.00034 s⁻¹ | 4.19e-05 ± 1.9e-05 s⁻¹ | 9.83e-05 ± 3.7e-05 s⁻¹
U57C C58G | 3.57e-05 ± 4.2e-06 s⁻¹ |  |  |  | 3.19e-05 ± 1e-05 s⁻¹ |  | 
U57G U69A | 3.67e-05 ± 1.4e-05 s⁻¹ |  | 5.54e-05 ± 2.1e-05 s⁻¹ |  |  |  | 
C58G U65G | < 1e-05 s⁻¹ |  |  |  |  |  | 
G66C C67A | 0.000183 ± 3e-05 s⁻¹ | 2370 ± 860 µM | 3.04e-05 ± 1.2e-05 s⁻¹ | 0.000107 ± 1.6e-05 s⁻¹ | 0.000137 ± 2.5e-05 s⁻¹ |  | 
G62A C70G | 4.83e-05 ± 2.2e-05 s⁻¹ |  | 4.71e-05 ± 1.5e-05 s⁻¹ |  | < 1e-05 s⁻¹ | < 1e-05 s⁻¹ | 
G7A U69C | < 1e-05 s⁻¹ |  |  |  |  |  | < 1e-05 s⁻¹
U31C C68U | 0.000617 ± 9.3e-05 s⁻¹ | 1690 ± 450 µM | 0.000175 ± 1.2e-05 s⁻¹ | 0.000321 ± 2.9e-05 s⁻¹ | 0.000583 ± 4.8e-05 s⁻¹ | 3.14e-05 ± 9.7e-06 s⁻¹ | 5.34e-05 ± 8.6e-06 s⁻¹
G32C U45A | 0.000238 ± 2.8e-05 s⁻¹ | 3690 ± 1000 µM | 2.9e-05 ± 1.3e-05 s⁻¹ | 0.000113 ± 2.7e-05 s⁻¹ | 0.000171 ± 2.3e-05 s⁻¹ |  | 
A42C G60C | < 1e-05 s⁻¹ |  | < 1e-05 s⁻¹ |  |  | < 1e-05 s⁻¹ | < 1e-05 s⁻¹
G37C U69G | 2.05e-05 ± 4e-06 s⁻¹ |  |  |  |  |  | 
